# In the supplement of paper PMC9233669:
# Variants at the floor of the assay were thinned out.
# Columns and labels:
# biotinyl-Phe-oxazolone = experiment: self-aminoacylation, catalytic enhancement (BFO) (fold over background); higher = more active; k-Seq, kA / k0A0; sequences stand for … in GGGAAUGGAUCCACAUCUACGAAUUC…UUCACUGCAGACUUGACGAAGCUG
# In short: (§1)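 Working in 50 μL HEPES/NaCl/KCl/MgCl2/CaCl2 buffer with 5% acetonitrile at pH 6.9–7.0, mutagenized RNA pools (0.43 μM; 21-nt variable region) were reacted with 2–1250 μM of each biotinyl-aminoacyl-oxazolone for 90 minutes at room temperature. Streptavidin capture followed, with quantification by triplicate qPCR and Illumina sequencing. Catalytic enhancement is reported as median kA over the uncatalyzed rate, the low-activity peak of a bimodal Gaussian fit to the data.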
# biotinyl-Ile-oxazolone = experiment: self-aminoacylation, catalytic enhancement (BIO) (fold over background); higher = more active; k-Seq, kA / k0A0; sequences stand for … in GGGAAUGGAUCCACAUCUACGAAUUC…UUCACUGCAGACUUGACGAAGCUG
# In short: as §1
# biotinyl-Met-oxazolone = experiment: self-aminoacylation, catalytic enhancement (BMO) (fold over background); higher = more active; k-Seq, kA / k0A0; sequences stand for … in GGGAAUGGAUCCACAUCUACGAAUUC…UUCACUGCAGACUUGACGAAGCUG
# In short: as §1
# biotinyl-Val-oxazolone = experiment: self-aminoacylation, catalytic enhancement (BVO) (fold over background); higher = more active; k-Seq, kA / k0A0; sequences stand for … in GGGAAUGGAUCCACAUCUACGAAUUC…UUCACUGCAGACUUGACGAAGCUG
# In short: as §1
# biotinyl-Leu-oxazolone = experiment: self-aminoacylation, catalytic enhancement (BLO) (fold over background); higher = more active; k-Seq, kA / k0A0; sequences stand for … in GGGAAUGGAUCCACAUCUACGAAUUC…UUCACUGCAGACUUGACGAAGCUG
# In short: as §1
# biotinyl-Trp-oxazolone = experiment: self-aminoacylation, catalytic enhancement (BWO) (fold over background); higher = more active; k-Seq, kA / k0A0; sequences stand for … in GGGAAUGGAUCCACAUCUACGAAUUC…UUCACUGCAGACUUGACGAAGCUG
# In short: as §1
Sequence,self-aminoacylation (biotinyl-Phe-oxazolone),self-aminoacylation (biotinyl-Ile-oxazolone),self-aminoacylation (biotinyl-Met-oxazolone),self-aminoacylation (biotinyl-Val-oxazolone),self-aminoacylation (biotinyl-Leu-oxazolone),self-aminoacylation (biotinyl-Trp-oxazolone)
AUUUCCCUAGUCAUCGAGUGA [Fam2.1 aminoacylation ribozyme variant],31.5,3.46,6.04,4.03,6.58,7.31
AUUUCCCUCGUCAUCGAGUGA [Fam2.1 aminoacylation ribozyme variant],21.2,2.5,3.39,2.6,3.93,4.57
AUUUCCCUGGUAAUCGAGUGA [Fam2.1 aminoacylation ribozyme variant],57.7,3.84,7.89,4.01,8.19,9.31
AUUUCCCUGGUCACCGAGUGA [Fam2.1 aminoacylation ribozyme variant],66.2,3.79,8.77,4.43,8.24,9.27
AUUUCCCUGGUCAUCCAGUGA [Fam2.1 aminoacylation ribozyme variant],55.4,4.3,7.52,4.5,8.35,9.93
AUUUCCCUGGUCAUCGAGAGA [Fam2.1 aminoacylation ribozyme variant],1.31,1.2,0.896,1.27,1.1,0.74
AUUUCCCUGGUCAUCGAGGGA [Fam2.1 aminoacylation ribozyme variant],1.28,1.47,1.44,1.59,1.83,1.65
AUUUCCCUGGUCAUCGAGUGG [Fam2.1 aminoacylation ribozyme variant],12,3.66,7.95,3.99,8.26,7.09
AUUUCCCUGGUCAUCGAGUGU [Fam2.1 aminoacylation ribozyme variant],26.8,6.35,14.9,7.71,14.6,12.4
AUUUCCCUGGUCAUCGCGUGA [Fam2.1 aminoacylation ribozyme variant],157,9.18,18.9,10.4,20.9,22.5
AUUUCCCUGGUCAUCGGGUGA [Fam2.1 aminoacylation ribozyme variant],90.8,10.1,18.5,11.6,21.5,23.9
AUUUCCCUGGUCCUCGAGUGA [Fam2.1 aminoacylation ribozyme variant],23.5,2.08,3.79,1.93,3.67,3.91
AUUUCCCUGGUUAUCGAGUGA [Fam2.1 aminoacylation ribozyme variant],58.2,4.12,9.01,4.39,8.65,10.9
AUUUUCCUGGUCAUCGAGUGA [Fam2.1 aminoacylation ribozyme variant],10.8,4.2,8.02,4.13,8.6,9.4
CAACACGUCAAGCAAUCGGUC [Fam1B.1 aminoacylation ribozyme variant],1.33,1.11,1.44,1.22,1.37,1.47
CAACACUACAAGCAAUCGGUC [Fam1B.1 aminoacylation ribozyme variant],0.958,0.955,0.956,1.01,0.914,0.713
CAACACUUAAAGCAAUCGGUC [Fam1B.1 aminoacylation ribozyme variant],0.828,1.12,0.98,0.909,0.82,0.79
CAACACUUCAACCAAUCGGUC [Fam1B.1 aminoacylation ribozyme variant],45.6,1.28,1.58,1.36,2.04,28.2
CAACACUUCAAGCAAUCGGUG [Fam1B.1 aminoacylation ribozyme variant],4.92,3.09,4.13,2.73,4.86,3.87
CAACUUCAAACAAUCGGCCUG [Fam1A.1 aminoacylation ribozyme variant],283,3.08,4.11,2.92,6.75,107
CAACUUCAAUCAAUCGGUCUG [Fam1A.1 aminoacylation ribozyme variant],35.7,1.43,1.36,1.4,2.03,24
CAAUACUUCAAGCAAUCGGUC [Fam1B.1 aminoacylation ribozyme variant],9.23,0.907,0.799,0.912,0.986,5.14
CAGUUUGCUAACAGUCGCAAG [Fam3.1 aminoacylation ribozyme variant],2,1.31,1.83,1.16,1.6,1.32
CAGUUUGCUAAUAGACGCAAG [Fam3.1 aminoacylation ribozyme variant],1.08,0.91,0.814,0.858,0.895,1.61
CAGUUUGCUAAUAGUCGCAAG [Fam3.1 aminoacylation ribozyme variant],2.94,1.36,1.28,1.21,1.35,1.55
CAGUUUGCUAGUAGUCGCAAG [Fam3.1 aminoacylation ribozyme variant],1.19,0.938,0.827,1.04,1.25,1.37

Sequence,self-aminoacylation (biotinyl-Phe-oxazolone),self-aminoacylation (biotinyl-Ile-oxazolone),self-aminoacylation (biotinyl-Met-oxazolone),self-aminoacylation (biotinyl-Val-oxazolone),self-aminoacylation (biotinyl-Leu-oxazolone),self-aminoacylation (biotinyl-Trp-oxazolone)
CAGUUUGGUAAUAGUCGCAAG [Fam3.1 aminoacylation ribozyme variant],2.57,1.85,1.73,1.67,1.73,1.97
CAUCACCUAGGUCAUCGGGUG [Fam2.2 aminoacylation ribozyme variant],21,3.15,6.18,4.05,6.23,5.76
CCAAACUUCAAGCAAUAGGUC [Fam1B.1 aminoacylation ribozyme variant],0.911,0.605,0.574,0.602,0.527,0.458
CCAAACUUCAAGCAAUCGGAC [Fam1B.1 aminoacylation ribozyme variant],1.14,0.912,0.662,1.1,0.789,0.602
CCAAACUUCAAGCAAUCGGUG [Fam1B.1 aminoacylation ribozyme variant],32.4,4.67,5.65,4.43,8.21,6.12
CCAAACUUCAAGCAAUCGUUC [Fam1B.1 aminoacylation ribozyme variant],0.813,0.743,0.66,0.93,0.621,0.803
CCAAACUUCAAUCAAUCGGUC [Fam1B.1 aminoacylation ribozyme variant],36.8,1.29,1.43,1.28,1.73,23.5
CCAAACUUGAAGCAAUCGGUC [Fam1B.1 aminoacylation ribozyme variant],0.596,0.898,0.87,0.996,0.828,0.693
CCAAAGUUCAAGCAAUCGGUC [Fam1B.1 aminoacylation ribozyme variant],1.35,1.35,1.32,1.4,1.28,1.17
CCAAUUCAAACAAUCGGUCUG [Fam1A.1 aminoacylation ribozyme variant],6.78,1.11,1.02,1.11,1.16,5.22
CCACAAGUCAAGCAAUCGGUC [Fam1B.1 aminoacylation ribozyme variant],1.15,1.64,1.67,1.54,1.49,1.32
CCACAAUUCAAGCAAUCGGAC [Fam1B.1 aminoacylation ribozyme variant],0.942,1.15,0.783,0.798,0.884,0.711
CCACAAUUCAAGCAAUCGGUC [Fam1B.1 aminoacylation ribozyme variant],2.8,1.17,0.936,1.16,0.973,1.69
CCACAAUUCAAGCAGUCGGUC [Fam1B.1 aminoacylation ribozyme variant],1.06,1.36,1.11,1.22,1.17,0.925
CCACAAUUCAAGCAUUCGGUC [Fam1B.1 aminoacylation ribozyme variant],1.36,1.96,1.68,1.85,1.94,1.36
CCACAAUUCGAGCAAUCGGUC [Fam1B.1 aminoacylation ribozyme variant],0.736,1.28,0.985,1.58,1.07,1.08
CCACACAUCAAACAAUCGGUC [Fam1B.1 aminoacylation ribozyme variant],3.04,0.795,0.715,0.92,0.749,1.92
CCACACAUCAAGAAAUCGGUC [Fam1B.1 aminoacylation ribozyme variant],1.2,0.732,0.61,0.776,0.792,0.645
CCACACAUCAAGCAACCGGUC [Fam1B.1 aminoacylation ribozyme variant],1.29,1.4,1.21,1.13,0.817,1.14
CCACACAUCAAGCAAUAGGUC [Fam1B.1 aminoacylation ribozyme variant],1.52,0.864,0.698,1.02,0.574,0.736
CCACACAUCAAGCAAUCGGAC [Fam1B.1 aminoacylation ribozyme variant],0.446,0.897,0.748,1.03,0.808,0.906
CCACACAUUAAGCAAUCGGUC [Fam1B.1 aminoacylation ribozyme variant],1,0.966,0.709,0.867,0.667,0.62
CCACACCUCAAACAAUCGGUC [Fam1B.1 aminoacylation ribozyme variant],7.05,1.24,1.04,1.13,1.29,4.47
CCACACCUGAAGCAAUCGGUC [Fam1B.1 aminoacylation ribozyme variant],0.952,1.01,0.903,1.18,0.946,0.911
CCACACGCCAAGCAAUCGGUC [Fam1B.1 aminoacylation ribozyme variant],0.829,0.961,1.29,1.23,0.862,0.555
